experiment: soluble on expression in E. coli; label from the status in PepcDB or PDB records

| Sequence | soluble on expression in E. coli |
| --- | --- |
| MWKISKENCEDLGFAIVCMFYDAINLSEFKLWLDIVVRDIPIDTIPLYIFDLIDFDKSIGEIYDVIGVVNYGYISNDQKNALTGIAFLRGIDVYDPPISKEKALKALEKYPEIYQRFQHFFPFVELPLF | not soluble |
| MPPITQQATVTAWLPQVDASQITGTISSLESFTNRFYTTTSGAQASDWIASEWQALSASLPNASVKQVSHSGYNQKSVVMTITGSEAPDEWIVIGGHLDSTIGSHTNEQSVAPGADDDASGIAAVTEVIRVLSENNFQPKRSIAFMAYAAEEVGLRGSQDLANQYKSEGKNVVSALQLDMTNYKGSAQDVVFITDYTDSNFTQYLTQLMDEYLPSLTYGFDTCGYACSDHASWHNAGYPAAMPFESKFNDYNPRIHTTQDTLANSDPTGSHAKKFTQLGLAYAIEMGSATGDTPTPGNQ | soluble |
| MSLREVALKILIVEDDTDAREWLSTIISNHFPEVWSAGDGEEGERLFGLHAPDVIITDIRMPKLGGLEMLDRIKAGGAKPYVIVISAFSEMKYFIKAIELGVHLFLPKPIEPGRLMETLEDFRHIKLAKLKKEEAEQERIRSLLFESKKELIRLIAHHWRQPLNVISITAENIKLNLDERGIEGHEDTHHLADKIVTESLRLSRVISRFSDTFFAKEEVGRHFGLHTVLKDAFEIAEPLAQEARCLLEIEGNDEVIFGLKGMLVQILLEVFKAIMALCDQVNRGELLVRVVCESFEGEVKIWMADVACAGRCWSEVMFEPFAGGFEEKRRDMELFVAQHLLRRYFDGMIKIVDRGEIRGLEITLSRNPKKFNSPLAEGHHHHHH | soluble |
| MSKVNEITRESWILSTFPEWGTWLNEEIEQTVVEPNTFSMWWLGCTGIWLKSAGNTNLSIDFWCGTGKKTQKNRLMNTQHQMMRMGGVEALQPNLRTSIFPLDPFAIKEIDAVLASHDHADHIDVNVAAAVLQNCGEHVKFIGPQACVDLWLGWGVPQERCIVAKVGDVLEIGDVKIRVLDSFDRTALVTLPKGVSSYDKAILDGMDERAVNYLIETSGGSVYHSGDSHYSNYYAKHGNDYQIDVALLSYGENPRGVTDKMTSSDVLRAAESLDCQVVVPFHHDIWANFQNDPREIEVLWNMKKDRLQYQFAPFFWQVGGKYTYPTDKGRMHYQHFRGFQDIFKNEPELPYKAFL | soluble |
| MKEVARVRNLNRIIMGKYEIEPWYFSPYPIELTDEDFIYIDDFTLQYFGSKKQYERYRKKCTLRHPPGNEIYRDDYVSFFEIDGRKQRTWCRNLCLLSKLFLDHKTLYYDVDPFLFYCMTRRDELGHHLVGYFSKEKESADGYNVASILTLPQYQRMGYGKLLIEFSYELSKKENKVGSPEKPLSDLGLLSYRAYWSDTLITLLVEHQKEITIDEISSMTSMTTTDILHTAKTLNILRYYKGQHIIFLNEDILDRYNRLKAKKRRTIDPNRLIWKPPV | soluble |
| SLAEPPAQDPAELAAAAESYLRQQLAALPGEPSITLDPLRTDRLDACEALTPFMPSGMRVRARMTVGLRCVAPRTWTVYAQATVSVPGQYYVAARQIAPGKTIEAADLTTRDGDLVALPPGVITDAAAILGMRPAHRIAAGQPIKGAGLRSAESVSRGQSVRITARGNGFVVSSEGQALDNAPPGATVQVRTASGQVVSGIVQAAGLVEIQL | not soluble |
| MDVSQWEQFAKHRSAVIRDYGMWIGLMDNNMEPIVDMPAPVSIDAPITRMTPSSCKAVFKTRVDGHIHPMVDYLIAENLAKVDEQGQLIAAAQDAVFLAIEVAQGIRNVYKGVFTVALGDQESPTLLEFNGVCEIQWTLGALPCPSAPYSWTGKWVDLNQDWAGKWSKTRTMADIKVAEVADGFTLSGAADTTIGKLISQSLQAINTMLKSKGRSLPIAVKPVTSNPTSPQLVIRPTDRFIWDEISDLALAAGVTVKCKTWWPSDPPVPGLDLKEPIVVIEITQEE | not soluble |
| MSLGSEGTSAKISISAIQVNANNPIEDRLLIQRMRLNLPGGENKDFVISAVIDGHGGWQVAEYVQNNFIRIFQKELSQYMSSLVREGSANESNPISQINETDIIAGLFYSLKKTYYILDEELKSKLEVAYNLGFSKLASVGACTTVSIITEDAILTANSGDCLSVYCNENGIWLPLNEQLSAMNPQEQKRLEEIHKHEKDNLIQCKQILHEKFLMGLYTIPKYRGCYVKGILQPSRAIGDFRLKSMDFNYNWEKDLSTEKLLPTFSYVLKDKESEQSKKEQHRENEDLNEDEFPYSYDLINGNNSINMRRDSYRYFVKNPLSFPYVRSEPMLHLFFYNSLNKNLSSTDNTSVEKISPNEYSEGHHHHHH | soluble |
| MKKIILTIGCPGSGKSTWAREFIAKNPGFYNINRDDYRQSIMAHEERDEYKYTKKKEGIVTGMQFDTAKSILYGGDSVKGVIISDTNLNPERRLAWETFAKEYGWKVEHKVFDVPWTELVKRNSKRGTKAVPIDVLRSMYKSMREYLGLPVYNGTPGKPKAVIFDVDGTLAKMNGRGPYDLEKCDTDVINPMVVELSKMYALMGYQIVVVSGRESGTKEDPTKYYRMTRKWVEDIAGVPLVMQCQREQGDTRKDDVVKEEIFWKHIAPHFDVKLAIDDRTQVVEMWRRIGVECWQVASGDF | soluble |
| MSLTREAYHRLTPLPHPGGRLFIKPGARGYRDPVHDLLQKTVEPFGERALDLNPGVGWGSLPLEGRMAVERLETSRAAFRCLTASGLQARLALPWEAAAGAYDLVVLALPAGRGTAYVQASLVAAARALRMGGRLYLAGDKNKGFERYFKEARALLGYGVVVRREGPYRVALLEKEKEAPPLPSLWRAFSARILGAEYTFHHLPGVFSAGKVDPASLLLLEALQERLGPEGVRGRQVLDLGAGYGALTLPLARMGAEVVGVEDDLASVLSLQKGLEANALKAQALHSDVDEALTEEARFDIIVTNPPFHVGGAVILDVAQAFVNVAAARLRPGGVFFLVSNPFLKYEPLLEEKFGAFQTLKVAEYKVLFAEKRGRHHHHHH | soluble |
| MTAFVHTLSDGMELTVEIKRRAKKNLIIRPAGTHTIRISVPPCFSVSALNRWLYENEAVLRQTLAKTPPPQTAENRLPESILFHGRQLALTAHQDTQILLMPSEIRVPEGAPEKQLALLRDFLERQAHSYLIPRLERHARTTQLFPAPSSLTSAKTFWGVCRKTTGIRFNWRLVGAPEYVADYVCIHELCHLAHADHSRAFWALTRRFAPYTPEAKQWLKIHGRELFALGLEHHHHHH | not soluble |
| MQIVSVDIGSTWTKAALFTREGDALTLVNHVLTPTTTHHLAKGFFSSLNQVLNVDNALPLLNSGEVALKYSSSAKGGLAVAAMGLVPSITLETAKVTAHSAGAKIAQYYAYKLNRRDIQALEETQPDILLFTGGTDGGEESYGLNNARVLAESKLDCAIIYAGNRDIQDEVQEILGHKDLTIVDNVLPDLDHPNPVAARQAICDIFLKRIVKGKGLDVIVDKTGEEPMPTPWTVFELVKAISNVDHSWKEFMLIDMGGATTDVYSACANTLSPDTVLHGVPEPFVKRTVEGDLGMRVSAVVVGESAKELVNVNFAQQPAQLDAFYHYLRHLVAHPDYLPANAEEKYFDTVLAGLCVGYATERHAGTKKEVCTCVGNVDLQMGRDLTTVRKVVGSGGWLSRASQFDMHHWLKYRELNDDGKRILLPTEFEYYRDSRGLLPLLANVARVDPLAAARTSIQCLTL | not soluble |
| MFNKVSVIGLGYIGLPTAAVLASRGLDVVGVDVNAHAVDTINKGEIHIVEPDLDIVVRSAVMTGKLKATLTAEPADAFLVAVPTPFKGDNHEPDLSYIEAAAKTIAPVLAKGNLVVLESTSPVGTTEKLAQWLAEARPDLTFPQQKGIAADVKIAYCPERVLPGYVLQELVSNDRVIGGVSKACSEKAVALYKTFVKGECIVTNARTAEMAKLTENSFRDVNIAFANELSLVCNKLKINVWELIRLANRHPRVSILNPGPGVGGHCIAVDPWFIVNSCPDEAQLIRTAREVNDGKPHWVVDQVKQAADQFKKPIIACLGLAFKADIDDLRESPALDITKHLAESKVGQLLAVEPNITELPSKLAKQGIELVSLERALELANIVVVLVDHKEFKAADKTEFAKKVVIDTRGVVA | not soluble |
| MRLPIFLLALSSASIVFSLDPVPEEYANVPKEFFEKFQAAIKSGDPVAVVDLFAPDDMLPVSGMIEAAQGIIKSFESYPTGIIERVRYEYGVIQINVRYYPNTPLLSKKTTIFKIKYENKWKGWTMVHFSDWM | not soluble |
| SAAIYSLYIINKSGGLIFYKDCGTKGRMDTNDSLRVASLWHSMHAISQQLSPVNGCSGIELLEADTFDLHCFQSLPGTKFFVVCEPGTPHMESLLRYIYELYTDYVLKNPFYEIEMPIRCELFDINLTQAVQSDRVALLGR | soluble |
| MAVSPDDPLILVGRVAGGFGVRGEVRITTYTEDPLSIAGFKALKRQDGSPALTIASARKTKDGVVCRCPGVETKEAADALRGLRLYVPRSALPEPDDDEFYLTDLVGLTVRHIQTDQLLGRVKSVQNFGAGDILEITPDLGGPTWYLPFTRAAVPEVRVSEGLILADPPALVGDHEGPEEKGLDENEELGDRDAAALEHHHHHH | not soluble |
| MAYDSRLPEQRDPATDPSANYDYQGDSVNRPDLVSALEQRVDGDVRFDTYTRELFATDASAYEQLPIGVVSPVSTEDVVAVMEYCAAEDIPVLPRGGGTSLAGQAVNEAVVLDFKRYMDE | not soluble |
| SLGEMKRAAIIIDDFGGDVKGVDDFLTGEIPVTVAVMPFLEHSTKQAEIAQAAGLEVIVHMPLEPKKGKISWLGPSGITSNLSVGEVKSRVRKAFDDIPYAVGLNNHMGSKIVENEKIMRAILEVVKEKNAFIIDSGTSPHSLIPQLAEELEVPYATRSIFLDNTHSSRKEVIKNMRKLAKKAKQGSEPIGIGHVGVRGDETYAGIRSMLDEFQAESIQLVPVSQLLPSPIEEDHNKFWQQPFQAKE | soluble |
| MAHHHHHHMEYDKEKMESLVSKVKEKFGKKVEIVNLKLDVKMPLFEIFLQASIHTQIKIFYARGRTLQYRLPPVFWTRCKILKENKILQEKYGGECAPGLFPQYDEYNIMQIMTECVYNDKYNFYVYDVNLEWENLCALTPENRELRKIVHQNVHVPTRLAVIKAFEQGVEDFRDVIREEYLIMLREQRKLKENKKYKF | not soluble |
| MGSDKIHHHHHHLKVVCISDTHEQLHNVTVPDGDVLIHAGDFTNNGKREELIKFNEEMTRFPHKYKLVVAGNHELGFDHDENQGERQDADKGLGTEDGYNILTNVTYLQDKGVTIDGVTFFGSSYHPLRGFPFYRNRAEQLAECWKAVPNDTNVLITHTPPLGYLDQFGDERWGCRDLLKTVERIQPAYHIFGHVHEQHGVLSNGNTVCYKLYENEF | not soluble |
| MGSDKIHHHHHHMSLNKNLNDIEKSQLIELMHESLRIRSHFELFLWMQGKLQVFLPHEIMITAWGDFSLGVIYFNIVSPLPGIRSDKIASHEINQFLQNLFNYWLNHAKAPFTLAAADNILHDCEFSNKESSYYLKNMKSALVHAIKDHRGRHDCLYVLLSSNLSFPPASRPMLEALLPYIDSALRQIEHLPEQQPTLIKAEPEPKDESLNILSGRELEIMDWVTKGKTNQEIGMILDISAFTVKNHLQRIFKKLNVMNRAQAVAKFRK | not soluble |
| MKLIWSPETASKAYIDTVKSCENLGTPGAAELVAAMAAGWNANLIVETWSEGETIAISVGLNIASRHTNGRHICIVPNARSQTAYLQAMAEQSCSNLPETIIMNEEGEELEHTMQTLQGIDFLVVDWDQKDFAANVLRNAVFGSRGAVVVCRSGYRRSTSCFSWTKAFSDRNVVRTVTLPVSGGLEIAHVAAARSSGKSDNNSNKRKWIKHFDQRSGEEHVIRK | soluble |
| MGQSTSKVPPSSPPNEPKFVQNTPISSPGFGRAQTMLDVSQLAAAAATLDAPTLQRSSSDTALNTSMTTTTVTQTACQKSYQQALEWGRNEQFLKLAHTFHTNNY | not soluble |
| LAQEKNYDLPEGVMVYVIEGPFFFGAVETFQSALANTHTDPKVLIIRMRWVPFIDVTGLQAMEEIILNLQKRGVRVLLSEANPLVDAKLRKMGIVQLIGEQNYYKEFSQALDVCRINDSDRKSQPPFEVAKPLASVTQ | not soluble |
